± gives the uncertainty stated by the source.
Test: self-splicing fitness, log relative to wild type (ln ratio); higher = more splicing; Tetrahymena group I intron in knt gene, E. coli kanamycin selection, DiMSum; sequences stand for … in CUCUCU…GGAGGGAAAAGUUAUCAGGCAUGCACCUGGUAGCUAGUCUUUAAACCAAUAGAUUGCAUCGGUUUAAAAGGCAAGACCGUCAAAUUGCGGGAAAGGGGUCAACAGCCGUUCAGUACCAAGUCUCAGGGGAAACUUUGAGAUGGCCUUGCAAAGGGUAUGGUAAUAAGCUGACGGACAUGGUCCUAACCACGCAGCCAAGUCCUAAGUCAACAGAUCUUCUGUUGAUAUGGAUGCAGUUCACAGACUAAAUGUCGGUCGGGGAAGAUGUAUUCUUCUCAUAAGAUAUAGUCGGACCUCUCCUUAAUGGGAGCUAGCGGAUGAAGUGAUGCAACACUGGAGCCGCUGGGAACUAAUUUGUAUGCGAAAGUAUAUUGAUUAGUUUUGGAGUACUCGUGGUCG
Procedure, shortened: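 A randomised library covering all eight P1ex-region intron nucleotides was built with the intron in the knt kanamycin-resistance gene on pET-22b(+) and held in E. coli BL21(DE3). Cells were grown overnight at 37°C or 30°C on LB agar, with or without 25 μg/mL kanamycin, plus 100 μg/mL carbenicillin, 50 μM IPTG and 0.2% rhamnose, and pooled colonies were amplicon-sequenced on an Illumina HiSeq 2500. DiMSum fitness is the error-weighted combination of wild-type-normalised replicate fold changes, kanamycin versus none.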

## AAACAGCAAUAUUACGUCGA
30 °C
  self-splicing fitness (ln): -0.86 ± 0.065
37 °C
  self-splicing fitness (ln): -0.774 ± 0.073

## UGCUAGCAAUAUUACGGUGA
30 °C
  self-splicing fitness (ln): -1.42 ± 0.12
37 °C
  self-splicing fitness (ln): -0.513 ± 0.13

## GUUAAGCAAUAUUACGAGGG
30 °C
  self-splicing fitness (ln): -3.99 ± 0.21
37 °C
  self-splicing fitness (ln): -3.08 ± 0.25

## CAUAAGCAAUAUUACGCAUC
37 °C
  self-splicing fitness (ln): -3.39 ± 0.43

## AAUAAGCAAUAUUACGAACC
30 °C
  self-splicing fitness (ln): -1.33 ± 0.15
37 °C
  self-splicing fitness (ln): -0.414 ± 0.18

## CCUCAGCAAUAUUACGAACA
30 °C
  self-splicing fitness (ln): -4.3 ± 0.42
37 °C
  self-splicing fitness (ln): -1.46 ± 0.41

## AGCUAGCAAUAUUACGUGCG
30 °C
  self-splicing fitness (ln): -1.02 ± 0.066
37 °C
  self-splicing fitness (ln): -0.499 ± 0.091

## AAUUAGCAAUAUUACGUCGC
30 °C
  self-splicing fitness (ln): -3.08 ± 0.27
37 °C
  self-splicing fitness (ln): -1.38 ± 0.21

## UUGAAGCAAUAUUACGUUUU
30 °C
  self-splicing fitness (ln): -2.7 ± 0.2
37 °C
  self-splicing fitness (ln): -2.52 ± 0.3

## UUUCAGCAAUAUUACGUAAA
30 °C
  self-splicing fitness (ln): -0.728 ± 0.089
37 °C
  self-splicing fitness (ln): -0.608 ± 0.11

## GUUAAGCAAUAUUACGGAAA
30 °C
  self-splicing fitness (ln): -1.77 ± 0.26
37 °C
  self-splicing fitness (ln): -1.06 ± 0.27

## GAAAAGCAAUAUUACGUGGU
30 °C
  self-splicing fitness (ln): -3.58 ± 0.17
37 °C
  self-splicing fitness (ln): -2.79 ± 0.2

## CGCUAGCAAUAUUACGUUAC
30 °C
  self-splicing fitness (ln): -3.23 ± 0.31

## CUGUAGCAAUAUUACGCGGC
30 °C
  self-splicing fitness (ln): -2.51 ± 0.47
37 °C
  self-splicing fitness (ln): -2.14 ± 0.3

## AUGAAGCAAUAUUACGCUAA
30 °C
  self-splicing fitness (ln): -1.32 ± 0.1
37 °C
  self-splicing fitness (ln): -0.00859 ± 0.13

## UUGCAGCAAUAUUACGUGGC
37 °C
  self-splicing fitness (ln): -2.93 ± 0.32

## GACCAGCAAUAUUACGACCU
30 °C
  self-splicing fitness (ln): 0.00245 ± 0.074
37 °C
  self-splicing fitness (ln): -0.389 ± 0.073

## CACUAGCAAUAUUACGUACC
30 °C
  self-splicing fitness (ln): -3.22 ± 0.18
37 °C
  self-splicing fitness (ln): -2.55 ± 0.24

## UGCGAGCAAUAUUACGAUAG
30 °C
  self-splicing fitness (ln): -3.32 ± 0.27
37 °C
  self-splicing fitness (ln): -1.7 ± 0.38

## UAUCAGCAAUAUUACGCUAG
30 °C
  self-splicing fitness (ln): -0.545 ± 0.1
37 °C
  self-splicing fitness (ln): -0.149 ± 0.12

## ACAUAGCAAUAUUACGCGUA
30 °C
  self-splicing fitness (ln): -2.19 ± 0.091
37 °C
  self-splicing fitness (ln): -0.613 ± 0.086

## CUCUAGCAAUAUUACGACUG
30 °C
  self-splicing fitness (ln): -1.68 ± 0.15
37 °C
  self-splicing fitness (ln): -0.621 ± 0.18

## GAUGAGCAAUAUUACGCAGA
30 °C
  self-splicing fitness (ln): -3.98 ± 0.43
37 °C
  self-splicing fitness (ln): -0.801 ± 0.19

## CCGAAGCAAUAUUACGCGGU
30 °C
  self-splicing fitness (ln): -3.64 ± 0.22
37 °C
  self-splicing fitness (ln): -2.11 ± 0.2

## CAGGAGCAAUAUUACGAGUG
30 °C
  self-splicing fitness (ln): -2.51 ± 0.2
37 °C
  self-splicing fitness (ln): -1.95 ± 0.17

## AACCAGCAAUAUUACGCACC
30 °C
  self-splicing fitness (ln): 0.0606 ± 0.077
37 °C
  self-splicing fitness (ln): 0.308 ± 0.1

## AUAUAGCAAUAUUACGAUUC
30 °C
  self-splicing fitness (ln): -1.29 ± 0.19
37 °C
  self-splicing fitness (ln): -0.0451 ± 0.23

## UACUAGCAAUAUUACGUCGC
30 °C
  self-splicing fitness (ln): -4.8 ± 0.46
37 °C
  self-splicing fitness (ln): -3.62 ± 0.24

## CUUCAGCAAUAUUACGCAUG
30 °C
  self-splicing fitness (ln): -1.48 ± 0.061
37 °C
  self-splicing fitness (ln): 0.119 ± 0.068

## AGUUAGCAAUAUUACGACAG
30 °C
  self-splicing fitness (ln): -0.556 ± 0.098
37 °C
  self-splicing fitness (ln): -0.495 ± 0.12

## GGUAAGCAAUAUUACGUUCU
30 °C
  self-splicing fitness (ln): -1.44 ± 0.12
37 °C
  self-splicing fitness (ln): -0.359 ± 0.12

## GAAGAGCAAUAUUACGGCUG
30 °C
  self-splicing fitness (ln): -2.1 ± 0.16
37 °C
  self-splicing fitness (ln): -1.22 ± 0.18

## UUACAGCAAUAUUACGCAAA
30 °C
  self-splicing fitness (ln): -1.83 ± 0.17
37 °C
  self-splicing fitness (ln): -0.688 ± 0.12

## CGUUAGCAAUAUUACGAGGG
30 °C
  self-splicing fitness (ln): -3.63 ± 0.47
37 °C
  self-splicing fitness (ln): -0.739 ± 0.19

## UAGAAGCAAUAUUACGCUUU
37 °C
  self-splicing fitness (ln): -1.99 ± 0.3

## UUCGAGCAAUAUUACGAGCA
30 °C
  self-splicing fitness (ln): -1.41 ± 0.16
37 °C
  self-splicing fitness (ln): -0.946 ± 0.15

## ACGGAGCAAUAUUACGGUAG
37 °C
  self-splicing fitness (ln): -2.33 ± 0.31

## AAAUAGCAAUAUUACGUUGU
30 °C
  self-splicing fitness (ln): -4.44 ± 0.29
37 °C
  self-splicing fitness (ln): -1.02 ± 0.12

## GCUCAGCAAUAUUACGGGGC
30 °C
  self-splicing fitness (ln): -3.56 ± 0.2
37 °C
  self-splicing fitness (ln): -1.98 ± 0.2

## ACCUAGCAAUAUUACGCUCC
30 °C
  self-splicing fitness (ln): -1.55 ± 0.14
37 °C
  self-splicing fitness (ln): -0.204 ± 0.12

## GUCGAGCAAUAUUACGCAAC
30 °C
  self-splicing fitness (ln): -1.92 ± 0.33
37 °C
  self-splicing fitness (ln): -0.123 ± 0.22

## GCGCAGCAAUAUUACGACGU
30 °C
  self-splicing fitness (ln): -1.69 ± 0.091
37 °C
  self-splicing fitness (ln): -1.13 ± 0.13

## UCAAAGCAAUAUUACGAAGC
30 °C
  self-splicing fitness (ln): -3.5 ± 0.33
37 °C
  self-splicing fitness (ln): -1.84 ± 0.38

## GUAUAGCAAUAUUACGAGAU
30 °C
  self-splicing fitness (ln): -3 ± 0.29
37 °C
  self-splicing fitness (ln): -1.22 ± 0.22

## ACUAAGCAAUAUUACGUAUU
30 °C
  self-splicing fitness (ln): -2.09 ± 0.082
37 °C
  self-splicing fitness (ln): -1.9 ± 0.11

## ACAAAGCAAUAUUACGCGUU
30 °C
  self-splicing fitness (ln): -3.19 ± 0.1
37 °C
  self-splicing fitness (ln): -2.69 ± 0.14

## GAUUAGCAAUAUUACGGCAU
30 °C
  self-splicing fitness (ln): -0.835 ± 0.11
37 °C
  self-splicing fitness (ln): 0.24 ± 0.12

## ACGGAGCAAUAUUACGCGGC
30 °C
  self-splicing fitness (ln): -3.42 ± 0.44

## CGAUAGCAAUAUUACGAUCC
30 °C
  self-splicing fitness (ln): -0.714 ± 0.13
37 °C
  self-splicing fitness (ln): 0.104 ± 0.19

## AUUCAGCAAUAUUACGCGUG
30 °C
  self-splicing fitness (ln): -1.25 ± 0.054
37 °C
  self-splicing fitness (ln): -0.218 ± 0.069

— the supplement of paper PMC7877785
